US20160032279 (published 2016)
Read-outs that look alike come from different tables or passages of the source. No end group written: not given here.

What was measured:
Streptavidin [1] = molecular target: T1, Streptavidin (Streptomyces avidinii, UniProt P22629); test: FACS
Streptavidin [2] = molecular target: T1, Streptavidin; test: FACS; remark: listed apart in the source

T1 sequence (P22629 37-163): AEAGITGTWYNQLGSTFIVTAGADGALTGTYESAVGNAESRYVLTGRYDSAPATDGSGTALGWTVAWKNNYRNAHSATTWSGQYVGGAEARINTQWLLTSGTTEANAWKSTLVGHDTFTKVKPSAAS

Binder: ICSYVMYTTCFLRVY (cysteine pairing not given here; also: phycoerythrin conjugate) [SA-2]
- Kd (Streptavidin [1]): 8 nM

Binder: RLEICQNVCYYLGTL (cysteine pairing not given here; also: phycoerythrin conjugate) [SA-1]
- Kd (Streptavidin [1]): 10 nM

Binder: TVLICMNICWTGETQ (cysteine pairing not given here; also: phycoerythrin conjugate) [SA-3]
- Kd (Streptavidin [2]): 4 nM
- Kd (Streptavidin [1]): 4 nM
